Assay results published in article PMC5472190.

Tests used:
[1] = target: triplex of the HSV-1 capsid (herpes simplex virus 1, strain F); assay: cryo-EM structure; icosahedral reconstruction of isolated PEVs (123 particles), projection matching from a starting map of in vitro-matured B-capsids that lack CCSC and pUL35; ~2 nm around the capsid shell, ~3.5 nm for the whole particle
[2] = target: nuclear egress complex (NEC), heterodimer of pUL31 and pUL34 (herpes simplex virus 1, strain F) (UniProt P10215); assay: cryo-electron tomography; tomograms of nuclear sacs from US3-null-infected Vero cells; 188 ring subtomograms, rotational symmetry by ROTASTAT, subtomogram averaging

Substance | occupancy [1] | stoichiometry N [2]
heterodimeric pUL17/pUL25 complex, C-capsid-specific complex (CCSC) (from UniProt P10201 1-703; P10209 1-580) | 100% | 
nuclear egress complex (NEC), heterodimer of pUL31 and pUL34 (from UniProt P10215 1-306; P10218 1-275) |  | 7
